Patent US20250163169A1, “ANTIBODIES FOR PREVENTING THE CLEAVAGE OF CD95L BY METALLOPROTEASES” (INSTITUT NATIONAL DE LA SANTÉ ET DE LA RECHERCHE MÉDICALE, priority 2022, published 2025)

B1: 9F5: Monoclonal antibody targeting Metalloprotease-Cleavage Sites of CD95L; light chain SEQ ID NO:18, heavy chain SEQ ID NO:19 (antibody, listed as Mus musculus, V domains shown)
VH: QVQLQQSGAELAKPGASVKMSCKASGYTFTTYWMHWVKQRPGQDLEWIGYINPRNGYTEYNQNFKDKATLTADKSSTTAFMQLSSLTSEDSALYYCAVDLGYWGQGTLVTVSA
VL: DIVMTQSPSSLAMSVGQKVTMNCKSSQSLLSSRNQKTYLAWYQQKPGQSPKLLVYFTSTRASGVPDRFIGSGGTDFTLTISSVQAEDLALYYCQQHYNTPWTFGGGTKLEIK
B2: 3C7: Monoclonal antibody targeting Metalloprotease-Cleavage Sites of CD95L; light chain SEQ ID NO:16, heavy chain SEQ ID NO:17 (antibody, listed as Mus musculus, V domains shown)
VH: QVQLQQSGAELAKPGASVKMSCKTSGYTFTSYWMHWVKQRPGQGLEWIGYINPNTGYTEYIQRFRDKATLTADKSSGTAYMQLSSLTSEDSAVYYCAVDLGYWGQGTLVTVSA
VL: DIVMTQSPSSLAMSVGQKVTMSCKSSQSLLSSRTQKHYLAWYQQKPGQSPKLLVYFTSTRESGVPDRFIGSGSGTDFTLTISSVQAEDLALYYCKQHYNTPWTFGGGTKLEIK

Legend:
[1] = system: CD95L-expressing leukemic T cell 1A12; assay: Expression level of membrane-bound CD95L on 1A12 cells by flow cytometry; type: cell-based; settings: 24 h, antibodies 10 pg/mL, GM6001 10 μM
Description: (§1) FIG. 2. Monoclonal antibodies targeting the Metalloprotease-Cleavage Sites of CD95L (MCSCs). […] Arrows represent putative cleavage site in CD95L sequence. […] Indicated peptides were injected in mice to generate monoclonal antibodies and three different hybridoma were selected regarding their ability to bind CD95L. […] B. Recombinant Ig-CD95L (100 ng) was pre-incubated for 15 min with indicated antibodies (100 pg/mL) and then treated for 1h with the indicated MMPs. The metalloprotease-cleaved fragment of Ig-CD95L (CD95L devoid of its released Ig domain of gp190) was monitored by immunoblotting. C. CD95L-expressing leukemic T cell 1A12 was incubated for 24 h with indicated antibodies ([…]) or the pan-MMP inhibitor GM6001 (10 μM) and the expression level of membrane-bound CD95L was assessed by flow cytometry. D. Supernatants were harvested from cells treated in C and the metalloprotease-cleaved CD95L was dosed by ELISA (Diaclone).

CD95L cleavage by MMP3 = assay: Cleavage of recombinant Ig-CD95L by MMP3 in vitro, cleaved fragment monitored by immunoblotting; type: biochemical, Homo sapiens; settings: Ig-CD95L 100 ng pre-incubated 15 min with antibody (100 pg/mL), then MMP 1 h
Description: (§2) FIG. 2. Monoclonal antibodies targeting the Metalloprotease-Cleavage Sites of CD95L (MCSCs). A. Left panel: The extracellular region of CD95L encompassing amino acid residues 102 to 281 can be cleaved by metalloproteases at different sites. Arrows represent putative cleavage site in CD95L sequence. Right panel: Using three peptides (peptides 1, 2 and 3) covering most of the MCSCs of CD95L, we have generated monoclonal antibodies. Indicated peptides were injected in mice to generate monoclonal antibodies and three different hybridoma were selected regarding their ability to bind CD95L. According to their affinity for the indicated peptides (assessed using ELISA), the 3C7 epitope should cover the […] sequence (SEQ ID NO:24). […] The metalloprotease-cleaved fragment of Ig-CD95L (CD95L devoid of its released Ig domain of gp190) was monitored by immunoblotting. […] CD95L-expressing leukemic T cell 1A12 was incubated for 24 h with indicated antibodies ([…]) or the pan-MMP inhibitor GM6001 (10 μM) and the expression level of membrane-bound CD95L was assessed by flow cytometry. […]
(§3) We have generated different extracellular regions of CD95L fused to large domains including the Ig domain of the gp190 (LIF receptor). […] The privileged cleavage sites (^113EL^114 for MMPs and ^129KQ^130 for ADAM) were then determined from MS/MS sequencing of the resulting cleavage products. […]

CD95L cleavage by MMP2 = assay: Cleavage of recombinant Ig-CD95L by MMP2 in vitro, cleaved fragment monitored by immunoblotting; type: biochemical, Homo sapiens; settings: Ig-CD95L 100 ng pre-incubated 15 min with antibody (100 pg/mL), then MMP 1 h
Description: as §2, §3

[2] = system: s-CD95L release from 1A12 cells; assay: Metalloprotease-cleaved CD95L dosed by ELISA in supernatants of 1A12 cells; type: cell-based; settings: 1A12 cells treated 24 hours, vs isotype (anti-myc 9E10 mAb) control
Description: as §1

Jurkat cells = assay: Jurkat cell death induced by mAb-pre-treated 1A12 cells, drop of mitochondrial transmembrane potential (DIOC6); type: cell-based; settings: 1A12 cells pre-treated 24 hours with 10 μg/mL mAb, then 4 hours with Jurkat cells
Description: (§4) FIG. 3. Antibody targeting the Metalloprotease-Cleavage Sites of CD95L (MCSCs) blocks the non-apoptotic functions of CD95L without affecting its apoptotic ones. A. WR19L (CD95L−) or 1A12 (CD95L+) cells were placed in the lower chamber of a Boyden chamber assay in the presence of the indicated mAbs ([…]). Triple negative breast cancer cell MDA-MB-231 was added to the upper part of the chamber and cell migration due to the gradient of metalloprotease-cleaved CD95L was evaluated after 24 hours by fixing and staining (Giemsa) migrating cells covering the lower side of the porous membrane. Left panel: Pictures of the Giemsa-stained MDA-MB-231 cells that migrated to the lower side of the membrane in the presence of WR19L (CD95L−) or 1A12 (CD95L+) cells and with isotypic (9E10) or anti-MCSC (3C7) monoclonal antibody. Right panel: Giemsa-stained MDA-MB-231 cells were lysed and absorbance was measured at a wavelength of 560 nm. Values represent the means and SEM of three independently performed experiments. **p<0.01 as calculated using two-tailed Mann-Whitney test. B. Upper panel: Jurkat cells are sensitive to the CD95-mediated apoptotic signal. […] Cell death was monitored by measuring the drop of mitochondrial transmembrane potential (Δψm). […] Cell death was monitored by measuring the drop of mitochondrial transmembrane potential (Δψm). […]

[3] = system: triple negative breast cancer cells MDA-MB-231; assay: Boyden chamber assay, migration of MDA-MB-231 cells towards 1A12 (CD95L+) cells; type: cell-based; settings: 1A12 (CD95L+) cells in lower chamber, mAb 10 pg/mL, 24 hours
Description: as §4

Sequence of CD95L cleavage by MMP2 (P48023 103-281 limits assumed): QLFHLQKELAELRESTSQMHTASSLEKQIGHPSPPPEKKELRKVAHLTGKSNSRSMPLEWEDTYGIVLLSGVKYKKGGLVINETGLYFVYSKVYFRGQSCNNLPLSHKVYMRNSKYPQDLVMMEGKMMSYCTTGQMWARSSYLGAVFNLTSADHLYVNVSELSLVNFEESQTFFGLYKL
Sequence of CD95L cleavage by MMP3 (P48023 103-281 limits assumed): as above

Row | Molecule | Expression level of membrane-bound CD95L [1] | Cleavage of CD95L by MMP3 in vitro (CD95L cleavage by MMP3) | Cleavage of CD95L by MMP2 in vitro (CD95L cleavage by MMP2) | Concentrations of s-CD95L in supernatant [2] | Apoptotic function of membrane-bound CD95L (Jurkat cells) | Generation of s-CD95L promoting migration of MDA-MB-231 cells [3]
1 | B1 | did not alter | efficiently abrogated the cleavage | efficiently abrogated the cleavage | – | – | –
2 | B2 | augmentation of m-CD95L similar to that observed with the broad spectrum MMP inhibitor GM6001 | efficiently abrogated the cleavage | efficiently abrogated the cleavage | significantly reduced | did not prevent the apoptotic function | inhibited
